The target in this test is Collagen I. The test is described as follows: ELISA; cytokine coated, ECM protein 0.02 to 320 nM, KD by non-linear fit. On the technique in general: ELISA stands for enzyme-linked immunosorbent assay.
Chain of Collagen I (P02452 162-1218, chain 1 of 2): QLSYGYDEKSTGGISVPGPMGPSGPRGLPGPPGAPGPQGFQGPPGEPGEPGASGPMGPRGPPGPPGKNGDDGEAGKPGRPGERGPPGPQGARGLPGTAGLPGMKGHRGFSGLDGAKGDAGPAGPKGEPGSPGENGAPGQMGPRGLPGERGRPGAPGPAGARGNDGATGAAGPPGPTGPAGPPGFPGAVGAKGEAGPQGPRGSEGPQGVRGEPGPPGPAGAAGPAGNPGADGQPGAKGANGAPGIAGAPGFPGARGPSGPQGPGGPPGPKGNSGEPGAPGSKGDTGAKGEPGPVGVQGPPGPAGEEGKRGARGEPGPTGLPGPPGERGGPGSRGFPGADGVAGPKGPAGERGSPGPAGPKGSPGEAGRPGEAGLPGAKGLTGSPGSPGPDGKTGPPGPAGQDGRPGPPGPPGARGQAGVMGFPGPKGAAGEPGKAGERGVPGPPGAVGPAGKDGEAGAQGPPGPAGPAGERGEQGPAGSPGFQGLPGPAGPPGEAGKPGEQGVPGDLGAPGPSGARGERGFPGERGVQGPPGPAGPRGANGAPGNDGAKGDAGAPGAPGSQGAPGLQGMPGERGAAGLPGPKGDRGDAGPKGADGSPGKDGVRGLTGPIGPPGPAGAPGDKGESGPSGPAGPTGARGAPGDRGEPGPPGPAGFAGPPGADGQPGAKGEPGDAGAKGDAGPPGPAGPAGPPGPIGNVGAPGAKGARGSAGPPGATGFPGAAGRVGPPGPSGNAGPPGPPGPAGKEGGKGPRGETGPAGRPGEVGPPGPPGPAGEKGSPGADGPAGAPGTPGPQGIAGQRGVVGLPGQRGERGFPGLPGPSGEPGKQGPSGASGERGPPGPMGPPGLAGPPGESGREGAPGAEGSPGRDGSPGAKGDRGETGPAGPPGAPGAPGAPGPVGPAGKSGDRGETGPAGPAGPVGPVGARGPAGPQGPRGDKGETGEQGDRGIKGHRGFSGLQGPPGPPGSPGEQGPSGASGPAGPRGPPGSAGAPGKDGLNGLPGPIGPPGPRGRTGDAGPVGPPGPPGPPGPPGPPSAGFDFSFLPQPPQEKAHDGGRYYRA
Chain of Collagen I (P08123 80-1119, chain 2 of 2, further chain): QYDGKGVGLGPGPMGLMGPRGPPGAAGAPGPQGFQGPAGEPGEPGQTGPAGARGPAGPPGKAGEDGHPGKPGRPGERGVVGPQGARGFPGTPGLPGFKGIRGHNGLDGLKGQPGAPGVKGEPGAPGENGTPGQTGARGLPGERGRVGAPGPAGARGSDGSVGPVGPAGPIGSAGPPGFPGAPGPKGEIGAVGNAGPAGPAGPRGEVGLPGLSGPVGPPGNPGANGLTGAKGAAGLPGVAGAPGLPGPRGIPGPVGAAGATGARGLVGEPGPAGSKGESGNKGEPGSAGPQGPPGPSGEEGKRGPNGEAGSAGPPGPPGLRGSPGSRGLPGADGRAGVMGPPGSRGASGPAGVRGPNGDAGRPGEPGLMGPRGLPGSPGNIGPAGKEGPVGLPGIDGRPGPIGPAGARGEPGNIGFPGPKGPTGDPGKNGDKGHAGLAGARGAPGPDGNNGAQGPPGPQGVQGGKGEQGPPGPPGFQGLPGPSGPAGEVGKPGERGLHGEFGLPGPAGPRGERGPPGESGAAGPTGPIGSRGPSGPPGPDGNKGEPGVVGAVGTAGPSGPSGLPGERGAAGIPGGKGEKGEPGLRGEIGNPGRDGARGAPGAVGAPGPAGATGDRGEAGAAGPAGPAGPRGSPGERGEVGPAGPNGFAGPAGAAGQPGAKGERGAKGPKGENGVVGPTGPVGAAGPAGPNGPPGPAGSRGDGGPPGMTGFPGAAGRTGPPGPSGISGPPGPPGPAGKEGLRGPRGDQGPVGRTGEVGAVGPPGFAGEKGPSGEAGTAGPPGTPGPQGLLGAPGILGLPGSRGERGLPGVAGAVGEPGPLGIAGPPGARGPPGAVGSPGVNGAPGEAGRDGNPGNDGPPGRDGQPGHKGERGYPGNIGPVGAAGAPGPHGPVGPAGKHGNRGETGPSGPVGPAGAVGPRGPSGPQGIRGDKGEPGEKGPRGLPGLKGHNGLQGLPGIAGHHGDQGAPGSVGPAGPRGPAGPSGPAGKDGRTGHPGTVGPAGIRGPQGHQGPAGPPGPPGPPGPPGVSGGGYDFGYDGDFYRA

B1: PlGF2 (ligand)
chain: PAVPPQQWALSAGNGSSEVEVVPFQEVWGRSYCRALERLVDVVSEYPSEVEHMFSPSCVSLLRCTGCCGDENLHCVPVETANVTMQLLKIRSGDRPSYVELTFSQHVRCECRPLREKMKPERRRPKRGKRRREKQRPTDCHLCGDAVPRR
notes: also called PIGF-2; placenta growth factor 2
As to B1, the Kd was 126 nM.

B2: human BMP-2-PlGF2123-144* (ligand)
chain: QAKHKQRKRLKSSCKRHPLYVDFSDVGWNDWIVAPPGYHAFYCHGECPFPLADHLNSTNHAIVQTLVNSVNSKIPKACCVPTELSAISMLYLDENEKVVLKNYQDMVVEGCGCRRRPKGRGKRRREKQRPTDSHL
notes: Inserted at the C-terminus of BMP-2
With B2, the Kd is 102 nM.

B3: human VEGF-A121-PlGF2123-144 (ligand)
chain: APMAEGGGQNHHEVVKFMDVYQRSYCHPIETLVDIFQEYPDEIEYIFKPSCVPLMRCGGCCNDEGLECVPTEESNITMQIMRIKPHQGQHIGEMSFLQHNKCECRPKKDRARQERRRPKGRGKRRREKQRPTDCHLCDKPRR
For the molecule B3, the Kd turned out to be 124 nM. This Kd and that of the molecule before are within 1.5-fold of each other.

B4: human PDGF-BB-PlGF2123-144 (ligand)
chain: SLGSLTIAEPAMIAECKTRTEVFEISRRLIDRTNANFLVWPPCVEVQRCSGCCNNRNVQCRPTQVQLRPVQVRKIEIVRKKPIFKKATVTLEDHLACKCETVAAARPVTRRRPKGRGKRRREKQRPTDCHL
Regarding B4, the Kd came to 96.3 nM.

By Kd is commonly meant the free concentration of one partner at which half of the binding sites on the other are occupied at equilibrium, for simple one-to-one binding. Low readings indicate tighter binding, high ones weaker binding.

For the origin of these results see patent US20140010832A1 (EPFL TTO, published 2014).
